Laboratory results from the supplement of paper PMC11780869.

Tested on: Bacillus subtilis
Assay: cleaved RNA product abundance (RNA/gDNA barcode ratio) relative to median wild-type variant (ratio to wild type); higher = more accumulation of the downstream cleavage product
Settings: experiment (reporter, strain, medium): exp 8a: truncated aprE reporter, strain BJT201 with 2% xylose (RNase J1 expressed); cleavage site: glnRA (positions -5 to +31 mutated)
Procedure, shortened: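 Oligos with a 9% error rate were used to build barcoded, mutagenized RNase Y cleavage-site windows within truncated aprE or tetM reporter mRNAs, which were integrated into the B. subtilis chromosome. Cultures were grown in LB at 37°C between OD600 0.0003 and 0.3. Cleaved RNA was gel-selected, reverse transcribed and barcode-sequenced, as were genomic DNA barcodes, and UMIs were collapsed. Cleaved product abundance is the scaled RNA:gDNA barcode ratio, with the median construct carrying the unmutated site as reference.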

Sequence	cleaved RNA product abundance
CGACATGTCCCGCTTCTTTCATTAATACATTAGCAACTGTTTTGCTATATACATTTACCTTTTAAGAGGAGGAAT	0.748
CGACATGTCCCGCTTCTTTCATTAATACATTAGCGACTTTTTTGCTATATACACTTACCTTTTAAGAGGAGGAAT	0.352
CGACATGTCCCGCTTCTTTCATTAATACGATAGCAACTGTTTTGCTATATACATTTACCTTTTAAGAGGAGGAAT	0.935
CGACATGTCCCGCTTCTTTCATTAATACGTAAGCAACTGTTTTGCTATATACATTTACCTTTTAAGAGGAGGAAT	0.225
CGACATGTCCCGCTTCTTTCATTAATACGTTAACAACTGTTTTGCTATATACATTTACCTTTTAAGAGGAGGAAT	0.195
CGACATGTCCCGCTTCTTTCATTAATACGTTACCAACTGTTTTGCTATATACATTTACCTTTTAAGAGGAGGAAT	0.215
CGACATGTCCCGCTTCTTTCATTAATACGTTAGAAACTGTTTTGCTATATACATTTACCTTTTAAGAGGAGGAAT	0.292
CGACATGTCCCGCTTCTTTCATTAATACGTTAGCAAATGTTTTGCTATATACATTTACCTTTTAAGAGGAGGAAT	1.26
CGACATGTCCCGCTTCTTTCATTAATACGTTAGCAACTATTTTGCTATATACATTTACCTTTTAAGAGGAGGAAT	1.33
CGACATGTCCCGCTTCTTTCATTAATACGTTAGCAACTGATTTGCTATATACATTTACCTTTTAAGAGGAGGAAT	1.24
CGACATGTCCCGCTTCTTTCATTAATACGTTAGCAACTGTTATGCTATATACATTTACCTTTTAAGAGGAGGAAT	0.886
CGACATGTCCCGCTTCTTTCATTAATACGTTAGCAACTGTTTAGCTATATACATTTACCTTTTAAGAGGAGGAAT	0.376
CGACATGTCCCGCTTCTTTCATTAATACGTTAGCAACTGTTTTACTATATACATTTACCTTTTAAGAGGAGGAAT	0.547
CGACATGTCCCGCTTCTTTCATTAATACGTTAGCAACTGTTTTGATATATACATTTACCTTTTAAGAGGAGGAAT	0.527
CGACATGTCCCGCTTCTTTCATTAATACGTTAGCAACTGTTTTGCCATATACATTTACCTTTTAAGAGGAGGAAT	0.23
CGACATGTCCCGCTTCTTTCATTAATACGTTAGCAACTGTTTTGCTAAATACATTTACCTTTTAAGAGGAGGAAT	0.266
CGACATGTCCCGCTTCTTTCATTAATACGTTAGCAACTGTTTTGCTACATACATTTACCTTTTAAGAGGAGGAAT	0.381
CGACATGTCCCGCTTCTTTCATTAATACGTTAGCAACTGTTTTGCTATAAACATTTACCTTTTAAGAGGAGGAAT	0.505
CGACATGTCCCGCTTCTTTCATTAATACGTTAGCAACTGTTTTGCTATATAAATTTACCTTTTAAGAGGAGGAAT	1.02
CGACATGTCCCGCTTCTTTCATTAATACGTTAGCAACTGTTTTGCTATATACATGTACCTTTTAAGAGGAGGAAT	0.369
CGACATGTCCCGCTTCTTTCATTAATACGTTAGCAACTGTTTTGCTATATACATTCACCTTTTAAGAGGAGGAAT	0.695
CGACATGTCCCGCTTCTTTCATTAATACGTTAGCAACTGTTTTGCTATATACATTTACCATTTAAGAGGAGGAAT	0.353

Sequence	cleaved RNA product abundance
CGACATGTCCCGCTTCTTTCATTAATACGTTAGCAACTGTTTTGCTATATACATTTACCTTTTAAGAGGAGGAAT	0.97
CGACATGTCCCGCTTCTTTCATTAATACGTTAGCAACTGTTTTGCTATATACATTTACTTTTTAAGAGGAGGAAT	0.472
CGACATGTCCCGCTTCTTTCATTAATACGTTAGCAACTGTTTTGCTATATACATTTATCTTTTAAGAGGAGGAAT	1.51
CGACATGTCCCGCTTCTTTCATTAATACGTTAGCAACTGTTTTGCTATATACGTTTACCTTTTAAGAGGAGGAAT	0.284
CGACATGTCCCGCTTCTTTCATTAATACGTTAGCAACTGTTTTGCTATATAGATTTACCTTTTAAGAGGAGGAAT	0.956
CGACATGTCCCGCTTCTTTCATTAATACGTTAGCAACTGTTTTGCTATATATATTTACCTTTTAAGAGGAGGAAT	1.83
CGACATGTCCCGCTTCTTTCATTAATACGTTAGCAACTGTTTTGCTATATCCATTTACCTTTTAAGAGGAGGAAT	0.193
CGACATGTCCCGCTTCTTTCATTAATACGTTAGCAACTGTTTTGCTATTTACATTTACCTTTTAAGAGGAGGAAT	0.232
CGACATGTCCCGCTTCTTTCATTAATACGTTAGCAACTGTTTTGTTATATACATTTACCTTTTAAGAGGAGGAAT	0.372
CGACATGTCCCGCTTCTTTCATTAATACGTTAGCAACTGTTTTTCTATATACATTTACCTTTTAAGAGGAGGAAT	0.455
CGACATGTCCCGCTTCTTTCATTAATACGTTAGCAACTTTTTTGCTATATACATTTACCTTTTAAGAGGAGGAAT	0.721
CGACATGTCCCGCTTCTTTCATTAATACGTTAGCAAGTGTTTTGCTATATACATTTACCTTTTAAGAGGAGGAAT	0.882
CGACATGTCCCGCTTCTTTCATTAATACGTTAGCAATAGTTTTGCTATATACATTTACCTTTTAAGAGGAGGAAT	0.874
CGACATGTCCCGCTTCTTTCATTAATACGTTAGCAATTGTTTTGCTATATACATTTACCTTTTAAGAGGAGGAAT	0.823
CGACATGTCCCGCTTCTTTCATTAATACGTTAGCATCTGTTTTGCTATATACATTTACCTTTTAAGAGGAGGAAT	0.87
CGACATGTCCCGCTTCTTTCATTAATACGTTAGCTACTGTTTTGCTATATACATTTACCTTTTAAGAGGAGGAAT	0.562
CGACATGTCCCGCTTCTTTCATTAATACGTTAGTAACTGTTTTGCTAAATACATTTACCTTTTAAGAGGAGGAAT	0.285
CGACATGTCCCGCTTCTTTCATTAATACGTTAGTAACTGTTTTGCTATATACATTTACCTTTTAAGAGGAGGAAT	0.334
CGACATGTCCCGCTTCTTTCATTAATACGTTATCAACTGTTTTGCTATATACATTTACCTTTTAAGAGGAGGAAT	0.281
CGACATGTCCCGCTTCTTTCATTAATACGTTCGCAACTGTTTTGCTATATACATTTACCTTTTAAGAGGAGGAAT	0.216
CGACATGTCCCGCTTCTTTCATTAATACGTTTGCAACTGTTTTGCTATATACATTTACCTTTTAAGAGGAGGAAT	0.769
CGACATGTCCCGCTTCTTTCATTAATACTTTAGCAACTGTTTTGCTATATACATTTACCTTTTAAGAGGAGGAAT	0.611

Sequence	cleaved RNA product abundance
CGACATGTCCCGCTTCTTTCATTAATAGGTTAGCAACTGTTTTGCTATATACATTTACCTTTTAAGAGGAGGAAT	0.766
CGACATGTCCCGCTTCTTTCATTAATATGTTAGCAACTGTTTTGCTATATACATTTACCTTTTAAGAGGAGGAAT	0.819
CGACATGTCCCGCTTCTTTCATTAATCAATTAGCAACTGTTTTGCTATATACATTTACCTTTTAAGAGGAGGAAT	0.946
CGACATGTCCCGCTTCTTTCATTAATCAGGTAGCAACTGTTTTGCTATATACATTTACCTTTTAAGAGGAGGAAT	0.783
CGACATGTCCCGCTTCTTTCATTAATCAGTAAGCAACTGTTTTGCTATATACATTTACCTTTTAAGAGGAGGAAT	0.489
CGACATGTCCCGCTTCTTTCATTAATCAGTCAGCAACTGTTTTGCTATATACATTTACCTTTTAAGAGGAGGAAT	0.367
CGACATGTCCCGCTTCTTTCATTAATCAGTGAGCAACTGTTTTGCTATATACATTTACCTTTTAAGAGGAGGAAT	0.37
CGACATGTCCCGCTTCTTTCATTAATCAGTTAACAACTGTTTTGCTATATACATTTACCTTTTAAGAGGAGGAAT	0.249
CGACATGTCCCGCTTCTTTCATTAATCAGTTAACTTTTTTGCTATATATATTTACCTTTTAAGAGGAGGAATTTT	0.238
CGACATGTCCCGCTTCTTTCATTAATCAGTTACCAACTGTTTTGCTATATACATTTACCTTTTAAGAGGAGGAAT	0.267
CGACATGTCCCGCTTCTTTCATTAATCAGTTAGAAACTGTTTTGCTATATACATTTACCTTTTAAGAGGAGGAAT	0.328
CGACATGTCCCGCTTCTTTCATTAATCAGTTAGCAACAGTTTTGCTATATACATTTACCTTTTAAGAGGAGGAAT	0.832
CGACATGTCCCGCTTCTTTCATTAATCAGTTAGCAACTATTTTGCTATATACATTTACCTTTTAAGAGGAGGAAT	1.97
CGACATGTCCCGCTTCTTTCATTAATCAGTTAGCAACTGTATTGCTATATACATTTACCTTTTAAGAGGAGGAAT	0.59
CGACATGTCCCGCTTCTTTCATTAATCAGTTAGCAACTGTGTTGCTATATACATTTACCTTTTAAGAGGAGGAAT	0.251
CGACATGTCCCGCTTCTTTCATTAATCAGTTAGCAACTGTTATGCTATATACATTTACCTTTTAAGAGGAGGAAT	0.578
CGACATGTCCCGCTTCTTTCATTAATCAGTTAGCAACTGTTGTGCTATATACATTTACCTTTTAAGAGGAGGAAT	0.354
CGACATGTCCCGCTTCTTTCATTAATCAGTTAGCAACTGTTTAGCTATATACATTTACCTTTTAAGAGGAGGAAT	0.775
CGACATGTCCCGCTTCTTTCATTAATCAGTTAGCAACTGTTTTACTATATACATTTACCTTTTAAGAGGAGGAAT	0.611
CGACATGTCCCGCTTCTTTCATTAATCAGTTAGCAACTGTTTTCCTATATACATTTACCTTTTAAGAGGAGGAAT	0.433
CGACATGTCCCGCTTCTTTCATTAATCAGTTAGCAACTGTTTTGATATATACATTTACCTTTTAAGAGGAGGAAT	0.648
CGACATGTCCCGCTTCTTTCATTAATCAGTTAGCAACTGTTTTGCAATATACATTTACCTTTTAAGAGGAGGAAT	0.332
